Measurements from patent US20090136495A1 (Eli Lilly, published 2009).
Numbering of substitutions follows the chain as printed. Where no end group is shown, it is not given here.

T1: cynomolgus monkey hepcidin-25 (cynomolgus monkey, UniProt A7XEI3 60-84, not fully specified)
T1 construct: mature; also called mature cynomolgous monkey hepcidin
T1 peptide: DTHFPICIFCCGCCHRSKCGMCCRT

T2: rat hepcidin-25 (rat, UniProt Q99MH3 60-84)
T2 construct: mature
T2 peptide (looked up): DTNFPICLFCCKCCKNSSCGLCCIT

T3: human hepcidin-25 (human, not fully specified)
T3 construct: also called human mature hepcidin
T3 peptide: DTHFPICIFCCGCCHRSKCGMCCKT

T4: mouse hepcidin-25 (mouse, UniProt Q9EQ21 59-83)
T4 construct: mature
T4 peptide (looked up): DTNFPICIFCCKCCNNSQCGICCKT

B1: Mab 3.8 (antibody, human IgG4, V domains shown)
VH: QVQLVQSGAEVKKPGSSVKVSCKASGYTFLIYPISWVRQAPGQGLEWMGNFHPYLGVTNYLEKFKGRVTITADKSTSTAYMELSSLRSEDTAVYYCARGGTGSFDYWGQGTTVTVSS
VL: DIQMTQSPSSLSASVGDRVTITCSASSRVSSTYLFWYQQKPGKAPKLLIYRTSPLASGVPSRFSGSGSGTDFTLTISSLQPEDFATYYCQQWSGYPFTFGGGTKVEIKR
notes: Human engineered Mab, human IgG4
B2: Mab 3.23 (antibody, human IgG4 S228P, kappa, V domains shown)
VH: B1 VH with L61V
VL: B1 VL with T98V
B3: Mab Hu22 (antibody, human IgG4 S228P, kappa, V domains shown)
VH: B1 VH with L30T, V57D, L61N
VL: B1 VL with P54T
B4: Fab 3.12 (Fab, V domains shown)
VH: B1 VH
VL: DIQMTQSPSSLSASVGDRVTITCSASSRVSSTYLFWYQQKPGKAPKLLIYRTSTLTSGVPSRFSGSGSGTDFTLTISSLQPEDFATYYCQQWSGYPFVFGGGTKVEIK
notes: Fab with human kappa, from E. coli periplasm; frameworks O2 and VH1-69
B5: Fab Hu22 (Fab, V domains shown)
VH: B1 VH with L30T, V57D, L61N
VL: B4 VL with T56A, V98T
notes: as for B4
B6: Fab 3.23 (Fab, V domains shown)
VH: B1 VH with L61V
VL: B4 VL with T54P, T56A
notes: as for B4
B7: Fab 1.7 (Fab, V domains shown)
VH: B1 VH with L30T, V57D, N59R, L61V
VL: B4 VL with T56V
notes: Fab with human kappa
B8: Mab 3.12 (antibody, human IgG4 S228P, kappa, V domains shown)
VH: B1 VH
VL: B1 VL with P54T, A56T, T98V
B9: Mab L1.5 (antibody, human IgG4 S228P, kappa, V domains shown)
VH: B1 VH
VL: B1 VL with S26E

Molecular target: T1, cynomolgus monkey hepcidin-25
Experiment: SPR (BIAcore), 25 C
Protocol: (§1) Except as noted, all reagents and materials are purchased from BIAcore® AB (Upsala, Sweden). All measurements are performed at 25° C. Samples are dissolved in HBS-EP buffer (150 mM sodium chloride, 3 mM EDTA, 0.05% (w/v) surfactant P-20, and 10 mM HEPES, pH 7.4). To capture Fabs with human kappa, goat-anti-human kappa is immobilized on flow cells 1 to 4 of a CM5 sensor chip at a level of 5000-10000 response units (Rus) using an amine coupling kit. To capture Mabs with mouse IgG1, goat-anti-mouse Fc gamma is immobilized on flow cells 1 to 4 of a CM5 sensor chip at a level of 5000-10000 Rus using an amine coupling kit. To capture antibodies with human IgG4, protein A is immobilized on flow cells 1 to 4 of a CM4 sensor chip at a level of 400-700 Rus using an amine coupling kit. Fabs prepared from E. coli periplasma and Mabs prepared from mammalian cell culture are evaluated using multiple analytical cycles. […] The measurements are obtained at 25° C. and the association and dissociation rates for each cycle are evaluated using a “1:1 with mass transfer” binding model in the BLAevaluation software.
In the case of B1, the “fold lower KD than for human hepcidin-25” value is reported as > 10 fold.

Molecular target: T2, rat hepcidin-25
Experiment: SPR (BIAcore), 25 C
Protocol: as §1
B2: no binding. B3: no binding.

Molecular target: T1, cynomolgus monkey hepcidin-25
Experiment: SPR (BIAcore), captured Mab, cynomolgus monkey hepcidin-25 injected, 25 C
Protocol: as §1
Binder B2 has a Kd of 0.0888 nM, a koff of 0.000577 s⁻¹ and a kon of 6.51e+06 M⁻¹ s⁻¹. B3 showed a Kd of 0.986 nM, a koff of 0.00816 s⁻¹ and a kon of 8.13e+06 M⁻¹ s⁻¹. B1 gave a Kd of 0.00933 nM, a koff of 0.00066 s⁻¹ and a kon of 7.07e+07 M⁻¹ s⁻¹.

These binders were tested against ferroportin C-terminally fused with green fluorescent protein (human), Q9NP59 (assay: cell-based or functional assay).
Sequence of ferroportin C-terminally fused with green fluorescent protein (human), Q9NP59 (Q9NP59 whole entry, the tested form may be a part): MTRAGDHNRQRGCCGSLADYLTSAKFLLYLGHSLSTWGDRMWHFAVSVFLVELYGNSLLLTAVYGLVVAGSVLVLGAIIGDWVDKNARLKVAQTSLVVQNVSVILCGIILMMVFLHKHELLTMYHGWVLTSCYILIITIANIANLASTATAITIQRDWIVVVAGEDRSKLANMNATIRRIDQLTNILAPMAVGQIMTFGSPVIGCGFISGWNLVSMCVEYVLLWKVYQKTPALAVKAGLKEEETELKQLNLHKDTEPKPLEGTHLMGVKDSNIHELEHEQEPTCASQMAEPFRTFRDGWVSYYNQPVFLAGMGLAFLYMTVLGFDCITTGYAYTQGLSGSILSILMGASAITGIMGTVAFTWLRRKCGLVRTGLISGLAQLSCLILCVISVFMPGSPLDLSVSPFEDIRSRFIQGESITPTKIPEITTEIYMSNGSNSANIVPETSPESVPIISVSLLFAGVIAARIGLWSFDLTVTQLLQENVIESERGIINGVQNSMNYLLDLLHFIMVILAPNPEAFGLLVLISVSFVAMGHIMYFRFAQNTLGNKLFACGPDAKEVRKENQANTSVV
Work on DTHFPICIFCCGCCHRSKCGMCCKT (ends and bridges not checked; cysteine pairing not given here) [human hepcidin-25] yielded a hepcidin-induced internalization and degradation of ferroportin (FPN-GFP fluorescence in HEK 293 cells), concentration of maximal effect of 0.5 µM.

Molecular target: T3, human hepcidin-25
Experiment: SPR (BIAcore), Fab captured on goat anti-human kappa, human hepcidin-25 injected, 25 C
Protocol: as §1
Work on B4 yielded a Kd of 0.0883 nM, a koff of 0.000347 s⁻¹ and a kon of 3.94e+06 M⁻¹ s⁻¹. In the case of B5, the Kd is reported as 0.647 nM, the koff is reported as 0.00456 s⁻¹ and the kon is reported as 7.05e+06 M⁻¹ s⁻¹. B6 gave a Kd of 0.0788 nM, a koff of 0.000278 s⁻¹ and a kon of 3.53e+06 M⁻¹ s⁻¹. With B7 the Kd was 0.422 nM, the koff was 0.00148 s⁻¹ and the kon was 3.8e+06 M⁻¹ s⁻¹.

Molecular target: T3, human hepcidin-25
Experiment: SPR (BIAcore), Mab captured on protein A, human hepcidin-25 injected, 25 C
Protocol: as §1
B2 was tested, and the Kd was 0.0994 nM, the koff was 0.000659 s⁻¹ and the kon was 6.2e+06 M⁻¹ s⁻¹. With B8 the Kd was 0.0599 nM, the koff was 0.00022 s⁻¹ and the kon was 3.68e+06 M⁻¹ s⁻¹. Work on B3 yielded a Kd of 0.764 nM, a koff of 0.00864 s⁻¹ and a kon of 1.09e+07 M⁻¹ s⁻¹. For B1, the Kd was 0.105 nM, the koff was 0.000768 s⁻¹ and the kon was 5.58e+06 M⁻¹ s⁻¹. Binder B9 has a Kd of 0.0342 nM, a koff of 0.000182 s⁻¹ and a kon of 5.31e+06 M⁻¹ s⁻¹.

Molecular target: T4, mouse hepcidin-25
Experiment: SPR (BIAcore), captured Mab, mouse hepcidin-25 injected, 25 C
Protocol: as §1
Binder B2 has a Kd of 50.1 nM, a koff of 0.192 s⁻¹ and a kon of 3.83e+06 M⁻¹ s⁻¹. Work on B3 yielded a Kd of 77.6 nM, a koff of 0.126 s⁻¹ and a kon of 1.62e+06 M⁻¹ s⁻¹. B1 gave a Kd of 34.6 nM, a koff of 0.124 s⁻¹ and a kon of 3.57e+06 M⁻¹ s⁻¹.
